Here are results for one molecule from patent US10864285B2, “Methods for the diagnosis and treatment of Sjögren's syndrome” (The U.S.A., as represented by the Secretary, Department of …, priority 2012, dated 2020).

In assay [1] the test system is HSG cells (a human salivary gland cell line). Put plainly: Regulated volume decrease (RVD) after hypotonic solution in HSG cells. The assay is classed as cell-based. The following applies: 6 ng/ml of BMP6 for 4 days. The procedure:
Regulated volume decrease was measured as described previously (Liu et al., J Biol Chem 281:15485-15495, 2006). Briefly SMGs from mice were removed at the end of the study and prepared as described (Liu et al., J Biol Chem 281:15485-15495, 2006). Cells were then loaded with the fluoroprobe calcein (Molecular Probes, Inc., Eugene, Oreg.) and excited at 490 nm. Emitted fluorescence was measured at 510 nm. In situ calibration of the dye was performed. Origin 7.5 (OriginLab, Northampton, Mass.) was used for data analysis and display. Significant difference between individual groups was tested by using analysis of variance.
Although no increase in a number of immunological factors was detected, it is not possible to rule out the possibility that BMP6 expression is a trigger for expression of another soluble factor and is not directly causing the loss of RVD in isolated salivary gland cells from the treated mice. To test for a direct effect of BMP6 on RVD, HSG cells (a human salivary gland cell line) were treated with 6 ng/ml of BMP6 for 4 days and then assayed for a loss in RVD activity (FIG. 8B). […] To date little is known about the role of BMPs in SS and the present work represents the first association.

The subject of assay [2] is salivary and lacrimal glands of mice. Kind of assay: Histopathological scoring for lymphocytic infiltrates (focus score). The assay is classed as in vivo, mouse. As to conditions: 20 weeks post cannulation, vs control mice, statistically significant. The procedure:
Submandibular glands (SMG) were removed for histological analysis from mice at the time of sacrifice, and placed O/N in 10% formalin. After fixation, the tissues were dehydrated in an ethanol series and embedded in paraffin according standard techniques. Sections were cut at 5 μm and subsequently stained with hematoxylin and eosin (H&E). Histopathological scoring was performed using the focus score. A focus is an aggregate of 50 or more mononuclear cells per 4 mm^2. Foci were counted through the whole section, in a total of three sections (50 μm between sections) per SG using a 40× magnification. The results were calculated and expressed as foci per 4 mm^2. The focus scores were assessed blindly by two different examiners and the mean scores were determined.
A hallmark of pSS is lymphocytic infiltration in the […] glands, especially salivary and lacrimal glands. To determine the effect of elevated BMP6 on the local immune environment of the salivary gland, histopathological scoring for lymphocytic infiltrates was performed on both salivary and lacrimal glands 20 weeks post cannulation. […] Furthermore, no changes in circulating autoantibodies to anti-Ro/SSA or anti-La/SSB were detected in the animals expressing BMP6 in the salivary glands compared with control mice (FIGS. 5C and 5D).

The subject of another assay is MDCK1 cells. Kind of assay: Trans epithelial resistance (TEER) of cell monolayers in transwells. It counts as cell-based. As to conditions: MDCK1 cells grown in 6 ng/ml BMP6 vs without BMP6. On the procedure:
(§1) Trans epithelial electrical resistance (TER) of all cell types was measured using a using a volt/ohm meter (Millicel; Millipore, Mass., USA) in an electrode chamber (EVOV; WPI, FL, USA). Cells were allowed to establish monolayers on 0.4-Am pore size polycarbonate filters in 6-mm Transwell chambers (Costar, Mass., USA).
(§2) Tight junction structures are important in the correct functioning of the salivary glands. […] To determine if BMP6 expression could alter epithelial integrity, monolayers of three well differentiated epithelia (SMEI, Caco-2, and MDCK1 cells) grown in the presence of 6 ng/ml BMP6 in transwells were tested for changes in trans epithelial resistance (TEER) compared with cells grown without BMP6 (FIG. 7A). […] BMP6 expression also changed the electrical potential of the glands as well (FIG. 7A).

Another assay deals with SMEI cells. The description is as above. It counts as cell-based. The following applies: SMEI cells grown in 6 ng/ml BMP6 vs without BMP6. On the procedure:
as §1, §2

The test system of a further assay is Caco-2 cells. The assay is described as above. It counts as cell-based. The following applies: Caco-2 cells grown in 6 ng/ml BMP6 vs without BMP6. On the procedure: as §1, §2
A further assay concerns SMG ducts of mice. Put plainly: Electrical potential across the duct of the SMG. As to conditions: mice transduced with 10^11 particles of AAV5 expressing BMP6, vs GFP control mice. The assay is classed as in vivo, mouse. An excerpt: To measure the electrical potential (EP) across the duct of the SMGs, a procedure was developed to measure the EP by cannulating the duct and inserting the electrode in the cannula. The high impedance electrode was attached to an electrometer (model FD223, World Precision Instrument, Sarasota, Fla.). The electrical potential of the duct was read by placing the ground electronic rode on the adjacent tissues to the opening of the ducts.
To measure electrophysiologic parameters associated with Sjögren's syndrome, a measurement circuit 20 (see FIG. 10) was established between a detection electrode 22 placed in a salivary gland duct and a reference electrode 24 placed in electrical contact with adjacent oral mucosa. In this particular example, the electrical potential was measured across the ducts of SMGs. A procedure was developed to measure TEER by cannulating the electrode of a transmeter (model FD223, World Precision Instrument, Sarasota, Fla.) in the ducts of SMGs of mice (FIG. 10). […]
The detecting electrode included a cannula 26 placed on a 1 mL syringe 28, which was a fixed supporter. […] The trans-epithelial potential was read by placing the ground electrode on the tissues adjacent to the opening of the ducts. Background potential was determined by reading the potential when the detecting electronic rode was placed in saline only.

B1: BMP6: A member of the TGF-β superfamily of growth factors; added to cultured cells at 6 ng/ml (protein, UniProt P22004 375-513, looked up)
Bone morphogenetic protein 6: SASSRRRQQSRNRSTQSQDVARVSSASDYNSSELKTACRKHELYVSFQDLGWQDWIIAPKGYAANYCDGECSFPLNAHMNATNHAIVQTLVHLMNPEYVPKPCCAPTKLNAISVLYFDDNSNVILKKYRNMVVRACGCH
Take B1: the “RVD activity of HSG cells” value in assay [1] was “loss of volume decrease was detected”. Besides, the “Increase in focus score in the salivary glands” value in assay [2] is recorded as above 2 fold. For the same molecule, the “Change in TEER” value with MDCK1 cells, in the assay with SMEI cells and in the assay on Caco-2 cells was “statistically significant increase in TEER” in each case. In addition, in the assay on SMG ducts of mice, the “Electrical potential in intact salivary glands” value was “increase in electrical potential”.
